{"source": "patent US20250122278A1", "about": "“ANTI-INTERLEUKIN-9 ANTIBODY AND USE THEREOF” (GUANGDONG KEGUANDA PHARMACEUTICAL TECHNOLOGY CO., LTD., priority 2022, published 2025)", "key": {"[1]": {"tested_on": "bleomycin mouse model of pulmonary fibrosis", "assay": "Bleomycin mouse pulmonary fibrosis model", "type": "in vivo", "conditions": "bleomycin model, 21 d", "protocol": "(§1) 6 to 8-week-old male C57BL/6J mice (purchased from Guangdong Sijiajingda Biotechnology Co., Ltd., license No.: SCXK (Guangdong) 2020-0052) were grouped, modeled, and administered according to the protocols shown in Tables 6 and 7 below. The modeling with bleomycin (Nippon Kayaku, 15 mg powder, and dose: 1.5 mg/kg) and silica (SiO2, sigma, USA, S5631-500 g, and dose: 2.5 mg/mouse) was started on day 0 (DO). The administration was started on day 1 (D1), and normal saline was adopted as a solvent for an antibody. A positive drug pirfenidone (Beijing Kangdini Pharmaceutical Co., Ltd., 100 mg capsule) was adopted in a positive control group, and the humanized antibody hu.CA1 (VH1−VL2) of the present application was adopted in an anti-IL-9 antibody group.\n(§2) A body weight of each mouse was measured every day. After the bleomycin model group was administered for 21 d and the silica model group was administered for 30 d, mice were sacrificed to collect lung tissues. The lung tissues each were stained to detect pathological changes in the lung tissues. Specifically, a degree of alveolar inflammation was detected through HE staining (an HE staining kit was purchased from Shanghai Beyotime Biotechnology, C0105M). A degree of pulmonary fibrosis was detected through Masson staining (a Masson staining kit was purchased from Nanjing Jiancheng Institute of Biological Engineering, D026-1-2). Scoring criteria for the HE staining and Masson staining were shown in Table 8 and Table 9 below, respectively (as shown in references: Matute-Bello G, Downey G, Moore B B, et al. An official American Thoracic Society workshop report: features and measurements of experimental acute lung injury in animals. Am J Respir Cell Mol Biol. 2011; 44 (5): 725-738. doi: 10.1165/rcmb.2009-0210ST and Lee Hyun Ju, Goo Jin Mo, Kim Na Ra et al. Semiquantitative measurement of murine bleomycin-induced lung fibrosis in in vivo and postmortem conditions using microcomputed tomography: correlation with pathologic scores—initial results. [J].Invest Radiol, 2008, 43: 453-60)."}, "[2]": {"tested_on": "silica mouse model of pulmonary fibrosis", "assay": "Silica mouse pulmonary fibrosis model", "type": "in vivo, C57BL/6J mice", "conditions": "30 d", "protocol": "as §1, §2"}, "[3]": {"biological_target": "T1, biotin-conjugated IL-9-Fc (Biotin-IL-9-Fc) (UniProt P15248 19-144, biotin-conjugated (sites not given))", "T1 construct": "range 19-144; also called Fc-IL-9 recombinant protein; Fc-IL-9; not shown: Fc tag (Fc2 in the vector name pLVX-Fc2-IL9 (19-144)-Puro)", "T1 sequence (P15248 19-144 limits assumed, form in doubt)": "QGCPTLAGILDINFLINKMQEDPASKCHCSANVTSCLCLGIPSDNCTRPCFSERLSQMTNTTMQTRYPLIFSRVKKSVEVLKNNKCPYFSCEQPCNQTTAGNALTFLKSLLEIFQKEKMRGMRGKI", "assay": "flow cytometry blocking assay (IL9-IL9R blocking determination): serially diluted antibody against the binding of Biotin-IL-9-Fc to 293-IL-9R cells (IL-9R), MFI; unit taken from the x axis, the table prints none"}, "[4]": {"biological_target": "T2, IL-9 antigen protein (Homo sapiens, UniProt P15248)", "T2 construct": "pcDNA3.4-IL9 (19-144)-His (P15248) and pLVX-Fc2-IL9 (19-144)-Puro; made in house; host or cells: 293F cells (transient transfection)", "T2 sequence (P15248 19-144)": "as the sequence (P15248 19-144 limits assumed, form in doubt) above", "assay": "ForteBio (BLI) affinity detection", "type": "binding", "conditions": "antibody immobilized on Protein A sensor, antigen 7.81-125 nM", "protocol": "The affinity of a humanized antibody was detected by ForteBio (BLI). The chimeric (as a control) and humanized antibodies were immobilized with a Protein A sensor (SARTORIUS, Cat #18-5010) at an immobilization height of about 1 nm. An antigen protein sample was serially diluted with PBS to 125 nM, 62.5 nM, 31.25 nM, 15.625 nM, 7.81 nM, and 0 nM. An affinity detection procedure was as follows: equilibration for 60 s, binding for 180 s, and dissociation for 180 s."}, "[5]": {"biological_target": "T3, IL-9-His recombinant protein (UniProt P15248 19-144)", "T3 construct": "range 19-144; used as coating antigen in the ELISAs; also called IL9 (19-144)-His; not shown: His tag, C-terminal by the vector name", "T3 sequence (P15248 19-144 limits assumed, form in doubt)": "as above", "assay": "BLI (ForteBio), antibody on Protein A sensor, antigen 7.81-125 nM in solution"}, "[6]": {"biological_target": "T3, IL-9-His recombinant protein", "assay": "ELISA on coated IL-9-His, OD450; unit taken from the x axis, the table prints none", "procedure": "ELISA was conducted according to a standard protocol to determine the affinity of a purified antibody for the IL-9-His recombinant protein. In short, the IL-9-His recombinant protein was diluted with sterile PBS and added at 100 μL/well to a 96-well plate. The plate was incubated at 4° C. overnight and then blocked with a blocking buffer. 100 μL of a purified anti-IL-9 antibody serially diluted was added to the plate, and the plate was incubated for 1 h at room temperature. PBS was added to a control well. The plate was washed with PBST 3 times. Then 100 μL of horseradish peroxidase (HRP)-labeled anti-mouse IgG H&L (BIODRAGON, CAT #BF03001) was added, and the plate was incubated for 1 h at room temperature. The plate was washed with PBST 3 times. Then a chromogenic reaction was conducted with a 3,3′,5,5′-tetramethylbenzidine (TMB) chromogenic solution at room temperature. An OD value in each well was read by a microplate reader. Data was processed with PRISM GraphPad, and curves were plotted. The EC₅₀ value for each candidate antibody was calculated."}, "[7]": {"biological_target": "T4, IL-9 (Homo sapiens, UniProt P15248)", "T4 construct": "pcDNA3.4-IL9 (19-144)-His (P15248); His (C); made in house; host or cells: 293F cells (transient transfection)", "T4 sequence (P15248 19-144)": "as the sequence (P15248 19-144 limits assumed, form in doubt) above", "assay": "ELISA binding of humanized antibodies to the target antigen", "conditions": "ELISA of culture supernatant of 293F cells, control chimeric antibody CA1", "protocol": "ELISA was conducted according to a standard protocol to determine the affinity of a purified antibody for the IL-9-His recombinant protein. In short, the IL-9-His recombinant protein was diluted with sterile PBS and added at 100 μL/well to a 96-well plate. The plate was incubated at 4° C. overnight and then blocked with a blocking buffer. 100 μL of a purified anti-IL-9 antibody serially diluted was added to the plate, and the plate was incubated for 1 h at room temperature. PBS was added to a control well. The plate was washed with PBST 3 times. Then 100 μL of horseradish peroxidase (HRP)-labeled anti-mouse IgG H&L (BIODRAGON, CAT #BF03001) was added, and the plate was incubated for 1 h at room temperature. The plate was washed with PBST 3 times. Then a chromogenic reaction was conducted with a 3,3′,5,5′-tetramethylbenzidine (TMB) chromogenic solution at room temperature. An OD value in each well was read by a microplate reader. Data was processed with PRISM GraphPad, and curves were plotted. The EC50 value for each candidate antibody was calculated.\nHumanized antibody expression vectors carrying a designed heavy-chain or light-chain sequence were transiently transfected into 293F cells in pairs, and then a resulting culture supernatant was collected. According to a standard protocol (with reference to part 5.1 in Example 1), with a human-mouse chimeric antibody CA1 constructed with VH and VL of the original murine antibody as a control, the binding of a humanized antibody to a target antigen was detected by ELISA. The method for ELISA was the same as described in 5.1 of Example 1. […] In the follow-up experiments, the four combinations of VH1−VL2, VH1−VL4, VH2−VL4, and VH3−VL4 (hu.CA1 to hu.CA4) were taken as examples for antibody purification and function testing. […]"}, "[8]": {"conditions": "antibody 100 μg i.p. every other day, pirfenidone 300 mg/kg intragastric daily"}}}
{"molecule": "Cc1ccc(=O)n(-c2ccccc2)c1", "note": "[pirfenidone, reference compound]", "values": [{"measurement": "collagen fibers and fibrosis regions of lung tissues (Masson staining)", "setting": "[1]", "result": "significantly reduced"}, {"measurement": "inflammation score", "setting": "[1]; HE staining, FIG. 9B", "result": "significantly reduce an inflammation score"}, {"measurement": "fibrosis score", "setting": "[1]; Masson staining, FIG. 10B", "result": "significantly reduce a fibrosis score"}, {"measurement": "lung tissue structures (HE staining)", "setting": "[1]; [8]", "result": "improved"}, {"measurement": "collagen fibers and fibrosis regions of lung tissues (Masson staining)", "setting": "[2]", "result": "significantly reduced"}, {"measurement": "inflammation score", "setting": "[2]; HE staining, FIG. 11B", "result": "significantly reduce an inflammation score"}, {"measurement": "fibrosis score", "setting": "[2]; Masson staining, FIG. 12B", "result": "reduce a fibrosis score"}, {"measurement": "lung tissue structures (HE staining)", "setting": "[2]; [8]", "result": "improved"}]}
{"molecule": "humanized antibody VH1-VL4 (hu.CA2) (antibody, V domains shown, IgG1 / kappa by the vectors pcDNA3.4-IgG1 and pcDNA3.4-IgKc; also called humanized VH1-VL4 antibody) VH: EVQLKQSGAEVMKPGASVKVSCKATGYTFTGYWIEWVRLAPGHGLEWMGEILPGSGSTNYNQKFQGRVTFTADTSINTAYMELSRLRSDDTAIYYCARRTYYYGIPEDYWGQGTLVTVSS VL: DIVMTQSPKFLSASVGDRVTITCKASQNVGTNVAWHQQKPGQSPKPLIYSASYRYSGVPSRFTGSGSGTDFTLTISNLQPEDFAEYFCQQYNSYPLTFGAGTKLEIK", "values": [{"measurement": "EC50", "setting": "[3]", "result": 8.18, "unit": "µg/mL"}, {"measurement": "Koff", "setting": "[4]", "result": 0.002206, "unit": "s⁻¹"}, {"measurement": "Kon", "setting": "[4]", "result": "1.165e+06", "unit": "M⁻¹ s⁻¹"}, {"measurement": "Kd", "setting": "[5]", "result": 1.89, "unit": "nM"}, {"measurement": "koff", "setting": "[5]", "result": 0.00221, "unit": "s⁻¹"}, {"measurement": "kon", "setting": "[5]", "result": "1.16e+06", "unit": "M⁻¹ s⁻¹"}, {"measurement": "EC50", "setting": "[6]", "result": 0.0127, "unit": "µg/mL"}, {"measurement": "binding to IL-9", "setting": "[7]", "result": "bind to IL-9 with high affinity"}]}
{"molecule": "humanized antibody VH2-VL4 (hu.CA3) (antibody, V domains shown, IgG1 / kappa by the vectors pcDNA3.4-IgG1 and pcDNA3.4-IgKc) VH: EVQLVQSGAEVMKPGASVKVSCKATGYTFTGYWIEWVRLAPGQGLEWMGEILPGSGSTNYNQKFQGRVTFTADTSTNTAYMELSSLRSEDTAIYYCARRTYYYGIPEDYWGQGTLVTVSS VL: DIVMTQSPKFLSASVGDRVTITCKASQNVGTNVAWHQQKPGQSPKPLIYSASYRYSGVPSRFTGSGSGTDFTLTISNLQPEDFAEYFCQQYNSYPLTFGAGTKLEIK", "values": [{"measurement": "EC50", "setting": "[3]", "result": 11.7, "unit": "µg/mL"}, {"measurement": "EC50", "setting": "[6]", "result": 0.0329, "unit": "µg/mL"}]}
{"molecule": "humanized antibody VH3-VL4 (hu.CA4) (antibody, V domains shown, IgG1 / kappa by the vectors pcDNA3.4-IgG1 and pcDNA3.4-IgKc) VH: EVQLVQSGAEVMKPGASVKVSCKATGYTFTGYWIEWVRLAPGQGLEWMGEILPGSGSTNYNQKLQGRVTFTADTSTNTAYMELRSLRSDDTAIYYCARRTYYYGIPEDYWGQGTLVTVSS VL: DIVMTQSPKFLSASVGDRVTITCKASQNVGTNVAWHQQKPGQSPKPLIYSASYRYSGVPSRFTGSGSGTDFTLTISNLQPEDFAEYFCQQYNSYPLTFGAGTKLEIK", "values": [{"measurement": "EC50", "setting": "[3]", "result": 11.3, "unit": "µg/mL"}, {"measurement": "EC50", "setting": "[6]", "result": 0.0323, "unit": "µg/mL"}]}
{"molecule": "VH2+VL4: humanized antibody, VH SEQ ID NO: 27, VL SEQ ID NO: 33 (antibody, V domains shown) VH: EVQLVQSGAEVMKPGASVKVSCKATGYTFTGYWIEWVRLAPGQGLEWMGEILPGSGSTNYNQKFQGRVTFTADTSTNTAYMELSSLRSEDTAIYYCARRTYYYGIPEDYWGQGTLVTVSS VL: DIVMTQSPKFLSASVGDRVTITCKASQNVGTNVAWHQQKPGQSPKPLIYSASYRYSGVPSRFTGSGSGTDFTLTISNLQPEDFAEYFCQQYNSYPLTFGAGTKLEIK", "values": [{"measurement": "binding to IL-9", "setting": "[7]", "result": "bind to IL-9 with high affinity"}]}
{"molecule": "VH3+VL1: humanized antibody, VH SEQ ID NO: 28, VL SEQ ID NO: 30 (antibody, V domains shown) VH: EVQLVQSGAEVMKPGASVKVSCKATGYTFTGYWIEWVRLAPGQGLEWMGEILPGSGSTNYNQKLQGRVTFTADTSTNTAYMELRSLRSDDTAIYYCARRTYYYGIPEDYWGQGTLVTVSS VL: DIVMTQSQKFLSTSVGDRVTITCRASQNVGTNVAWHQQKPGQSPKPLIYSASYRYSGVPSRFTGSGSGTDFTLTISNLQPEDFAEYFCQQYNSYPLTFGAGTKLEIK", "values": [{"measurement": "binding to IL-9", "setting": "[7]", "result": "bind to IL-9 with high affinity"}]}
{"molecule": "VH3+VL3: humanized antibody, VH SEQ ID NO: 28, VL SEQ ID NO: 32 (antibody, V domains shown) VH: EVQLVQSGAEVMKPGASVKVSCKATGYTFTGYWIEWVRLAPGQGLEWMGEILPGSGSTNYNQKLQGRVTFTADTSTNTAYMELRSLRSDDTAIYYCARRTYYYGIPEDYWGQGTLVTVSS VL: DIVMTQSPKFVSTSVGDRVTITCRASQNVGTNVAWHQQKPGQSPKPLIYSASYRYSGVPSRFTGSGSGTDFTLTISNLQPEDFAEYFCQQYNSYPLTFGAGTKLEIK", "values": [{"measurement": "binding to IL-9", "setting": "[7]", "result": "bind to IL-9 with high affinity"}]}
{"molecule": "CA1: human-mouse chimeric IgG1/kappa antibody with VH and VL of murine 38-D8-C7-G9 (antibody, V domains shown) VH: EVQLKQSGAELMKPGASVKLSCKATGYTFTGYWIEWVKLRPGHGLEWIGEILPGSGSTNYNEEFKGKATFTADTSSNTAYMQLNSLTTEDSAIYYCARRTYYYGIPEDYWGQGTSVTVSS VL: DIVMTQSQKFMSTSVGDRVSVTCKASQNVGTNVAWHQQKPGQSPKPLIYSASYRYSGVPDRFTGSGSGTDFTLTISNVQSEDLAEYFCQQYNSYPLTFGAGTKLELK", "values": [{"measurement": "Koff", "setting": "[4]", "result": 0.0009336, "unit": "s⁻¹"}, {"measurement": "Kon", "setting": "[4]", "result": "2.13e+06", "unit": "M⁻¹ s⁻¹"}]}
